From paper PMC4068106 come the findings set out here.

By stoichiometry N is commonly meant a count of units in the complex or per binding partner.

For this test, the target named is T1, human C-reactive protein (GMP preparation) (human), P02741.
T1 chain: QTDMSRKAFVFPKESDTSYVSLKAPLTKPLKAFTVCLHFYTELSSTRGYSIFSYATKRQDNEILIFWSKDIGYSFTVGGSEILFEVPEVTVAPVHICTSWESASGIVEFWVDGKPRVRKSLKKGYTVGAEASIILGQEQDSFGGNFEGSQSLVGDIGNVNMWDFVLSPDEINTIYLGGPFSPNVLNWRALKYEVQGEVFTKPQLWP
As to the kind of experiment: SEC; 0.02 mg in 100 uL on Superdex 200, 0.5 mL/min, 10 mM Tris, 140 mM NaCl, 2 mM CaCl2, pH 8.0; self-assembly of CRP. The following applies: remark: other sources report otherwise. In general terms: Size exclusion chromatography separates by hydrodynamic size, large species first.

B1: human C-reactive protein (GMP preparation), P02741 19-224 (natural protein)
chain: T1 chain
modifications: here or on the partner: N-terminal PCA; N-terminal PCA
As to B1, the stoichiometry N was 5.
